This experiment addresses T1, TRAF2 TRAF-C domain (human TRAF2 residues 315-501), tag cleaved, for crystallization (human, UniProt Q12933 315-501).
T1 sequence (looked up): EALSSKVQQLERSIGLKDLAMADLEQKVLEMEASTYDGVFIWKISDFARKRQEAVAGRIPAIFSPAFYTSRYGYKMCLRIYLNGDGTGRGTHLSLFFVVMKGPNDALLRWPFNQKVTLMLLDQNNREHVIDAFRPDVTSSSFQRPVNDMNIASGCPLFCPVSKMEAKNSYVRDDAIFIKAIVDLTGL
The experiment in a line: crystal structure. The settings on record: both partners purified.

Where no end group is shown, it is not given here. [ ]: non-standard residue; d: D form. SeMet = C[Se]CC[C@H](N)C(=O)O

As for RATATIP[SeMet]QASLPFGW, the binding result is listed as “binds”.
